In article PMC12115719:

Molecular target: Syngnathus scovelli chapparvovirus (SsChPV) VP, capsid protein (Syngnathus scovelli chapparvovirus)
Assay: cryo-EM structure

## Syngnathus scovelli chapparvovirus (SsChPV) VP, capsid protein (natural protein)
  stoichiometry N: 60
